Results reported in the supplement of paper PMC12783771.
± gives the standard deviation of the averaged measurements.

B1: library; numbered along this chain (parent)
chain: MNIQIGELAKRTACPVVTIRFYEQEGLLPPPGRSRGNFRLYGEEHVERLQFIRHCRSLDMPLSDVRTLLSYRKRPDQDCGEVNMLLDEHIRQVESRIGALLELKHHLVELREACSGARPAQSCGILQGLSDCVCDTRGTTAHPSD

Experiments:
[1] = variants of: B1; assay: sfGFP reporter fluorescence (15 h) (µM FITC); higher = higher leak; details: library round: Round 0; ligand: none
Procedure, shortened: (§1)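 Linear PbrR templates were made by PCR, normalized to 5 nM with an Echo, and expressed in BL21 Star (DE3) PANOx-SP extract with the pPbrR-sfGFP reporter plasmid and 30 μg/mL GamS. Echo-assembled 1 μL reactions held 1 µM lead chloride, 30 µM zinc acetate or no metal and were incubated 15 hr at 30 °C. Endpoint sfGFP fluorescence was read on a Synergy Neo2 and expressed as µM FITC using standard curves. Up to three biological replicates were run.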

[2] = variants of: B1; assay: sfGFP reporter fluorescence (15 h) (µM FITC); higher = stronger transcriptional activation; details: library round: Round 0
Procedure, shortened: as §1

Row | Variant | sfGFP reporter fluorescence [1] | sfGFP reporter fluorescence ([2]; ligand: 1 µM Pb) | sfGFP reporter fluorescence ([2]; ligand: 30 µM Zn)
1 | G128V | 0.0647 ± 0.00078 | 0.131 ± 0.011 | 1.54 ± 0.16
2 | G128W | 0.07165 ± 0.00026 | 0.248 ± 0.028 | 1.39 ± 0.098
3 | G128Y | 0.0755 | 0.203 ± 0.018 | 1.37 ± 0.067
4 | L129A | 0.0572 ± 0.0021 | 0.0561 ± 0.001 | 0.0574 ± 0.0018
5 | L129C | 0.0561 ± 0.0015 | 0.05791 ± 0.00052 | 0.05443 ± 0.00026
6 | L129D | 0.0588 ± 0.0013 | 0.05992 ± 0.00026 | 0.055 ± 0.001
7 | L129E | 0.0581 ± 0.0013 | 0.0597 ± 0.0021 | 0.0546 ± 0.0015
8 | L129F | 0.0559 ± 0.0013 | 0.0581 ± 0.00078 | 0.0564 ± 0.001
9 | L129G | 0.0526 ± 0.00078 | 0.0542 ± 0.001 | 0.0509 ± 0.0021
10 | L129H | 0.0586 ± 0.0015 | 0.0586 ± 0.0021 | 0.0583 ± 0.0015
11 | L129I | 0.0535 ± 0.0021 | 0.0592 ± 0.0013 | 0.163 ± 0.012
12 | L129K | 0.0581 ± 0.00078 | 0.059 ± 0.0021 | 0.05662 ± 0.00026
13 | L129M | 0.0577 ± 0.00078 | 0.05901 ± 0.00052 | 0.0788 ± 0.0047
14 | L129N | 0.0586 ± 0.0015 | 0.05827 ± 0.00052 | 0.0535 ± 0.0036
15 | L129P | 0.05387 ± 0.00052 | 0.055 ± 0.0036 | 0.0491 ± 0.0026
16 | L129Q | 0.0588 ± 0.0018 | 0.0574 ± 0.0013 | 0.05406 ± 0.00026
17 | L129R | 0.0588 ± 0.00078 | 0.05901 ± 0.00052 | 0.0557
18 | L129S | 0.0577 ± 0.0013 | 0.05901 ± 0.00052 | 0.0563 ± 0.00078
19 | L129T | 0.05827 ± 0.00052 | 0.0581 ± 0.00078 | 0.055 ± 0.0021
20 | L129V | 0.0557 ± 0.001 | 0.05717 ± 0.00052 | 0.05351 ± 0.00052
21 | L129W | 0.0572 ± 0.0026 | 0.06047 ± 0.00052 | 0.05717 ± 0.00052
22 | L129Y | 0.057 ± 0.0018 | 0.05901 ± 0.00052 | 0.05626 ± 0.00026

Row | Variant | sfGFP reporter fluorescence [1] | sfGFP reporter fluorescence ([2]; ligand: 1 µM Pb) | sfGFP reporter fluorescence ([2]; ligand: 30 µM Zn)
23 | S130A | 0.0599 ± 0.0013 | 0.0821 ± 0.001 | 0.862 ± 0.14
24 | D131A | 0.0691 ± 0.00078 | 0.1098 ± 0.00078 | 1.141 ± 0.0013
25 | D131C | 0.05919 ± 0.00026 | 0.0779 ± 0.0013 | 0.242 ± 0.062
26 | D131E | 0.059 ± 0.0021 | 0.0825 ± 0.0042 | 0.657 ± 0.043
27 | D131F | 0.0596 ± 0.0013 | 0.0821 ± 0.0057 | 0.723 ± 0.048
28 | D131G | 0.0566 ± 0.00078 | 0.0991 ± 0.0034 | 0.604 ± 0.15
29 | D131H | 0.0621 ± 0.0013 | 0.0957 ± 0.0026 | 0.996 ± 0.034
30 | D131I | 0.0607 ± 0.0029 | 0.0797 ± 0.0049 | 0.832 ± 0.073
31 | D131K | 0.0706 ± 0.0029 | 0.127 ± 0.012 | 1.5 ± 0.34
32 | D131L | 0.0663 ± 0.0042 | 0.119 ± 0.0091 | 0.994 ± 0.19
33 | D131M | 0.0687 ± 0.0018 | 0.126 ± 0.0073 | 1.17 ± 0.17
34 | D131N | 0.0654 ± 0.00078 | 0.103 ± 0.0093 | 1.13 ± 0.24
35 | D131P | 0.0546 ± 0.0015 | 0.0619 ± 0.0021 | 0.134 ± 0.015
36 | D131Q | 0.06432 ± 0.00026 | 0.124 ± 0.0029 | 1.26 ± 0.24
37 | D131R | 0.0733 ± 0.00052 | 0.17 ± 0.022 | 1.65 ± 0.29
38 | D131S | 0.0618 ± 0.0034 | 0.1033 ± 0.00052 | 0.962 ± 0.087
39 | D131T | 0.06267 ± 0.00052 | 0.0914 ± 0.012 | 0.747 ± 0.23
40 | D131V | 0.0641 ± 0.001 | 0.0905 ± 0.0078 | 0.984 ± 0.15
41 | D131W | 0.05699 ± 0.00026 | 0.07275 ± 0.00026 | 0.356 ± 0.046
42 | D131Y | 0.05919 ± 0.00026 | 0.0815 ± 0.0029 | 0.806 ± 0.01
43 | C132A | 0.0695 ± 0.0023 | 0.0832 ± 0.0073 | 1.63 ± 0.043
44 | V133A | 0.06341 ± 0.00052 | 0.0746 ± 0.007 | 0.769 ± 0.021

Row | Variant | sfGFP reporter fluorescence [1] | sfGFP reporter fluorescence ([2]; ligand: 1 µM Pb) | sfGFP reporter fluorescence ([2]; ligand: 30 µM Zn)
45 | C134A | 0.0652 ± 0.001 | 0.0821 ± 0.0052 | 0.59 ± 0.049
46 | C134D | 0.06157 ± 0.00052 | 0.0684 ± 0.0018 | 1.004 ± 0.008
47 | C134E | 0.0608 ± 0.001 | 0.0651 ± 0.0034 | 0.929 ± 0.095
48 | C134F | 0.081 ± 0.001 | 0.202 ± 0.01 | 1.32 ± 0.51
49 | C134G | 0.0651 ± 0.0029 | 0.0841 ± 0.0013 | 1.35 ± 0.059
50 | C134H | 0.0645 | 0.0913 ± 0.0042 | 1.05 ± 0.012
51 | C134I | 0.0678 ± 0.001 | 0.113 ± 0.0044 | 1.19 ± 0.11
52 | C134K | 0.0742 ± 0.00078 | 0.0891 ± 0.0021 | 1.71 ± 0.084
53 | C134L | 0.0673 ± 0.00078 | 0.113 ± 0.012 | 1.3 ± 0.054
54 | C134M | 0.0693 ± 0.001 | 0.09162 ± 0.00052 | 1.28 ± 0.065
55 | C134N | 0.06505 ± 0.00026 | 0.081 ± 0.0031 | 1.39 ± 0.12
56 | C134P | 0.0667 ± 0.00052 | 0.0847 ± 0.011 | 1.54 ± 0.058
57 | C134Q | 0.0652 | 0.0953 ± 0.001 | 1.33 ± 0.4
58 | C134R | 0.0731 ± 0.0023 | 0.0993 ± 0.0042 | 1.66 ± 0.018
59 | C134S | 0.06597 ± 0.00052 | 0.0814 ± 0.0036 | 1.22 ± 0.1
60 | C134T | 0.06542 ± 0.00026 | 0.0823 ± 0.0049 | 1.21 ± 0.096
61 | C134V | 0.0667 ± 0.00052 | 0.0894 ± 0.0047 | 1.13 ± 0.25
62 | C134W | 0.145 ± 0.0042 | 0.4695 ± 0.0031 | 1.92 ± 0.047
63 | C134Y | 0.072 ± 0.0034 | 0.154 ± 0.012 | 1.49 ± 0.19
64 | D135A | 0.0733 ± 0.0015 | 0.0834 ± 0.0029 | 0.335 ± 0.0078
65 | D135C | 0.0603 ± 0.0013 | 0.0792 ± 0.0036 | 1.73 ± 0.12
66 | D135E | 0.0579 ± 0.0021 | 0.0724 ± 0.0029 | 0.648 ± 0.055

Row | Variant | sfGFP reporter fluorescence [1] | sfGFP reporter fluorescence ([2]; ligand: 1 µM Pb) | sfGFP reporter fluorescence ([2]; ligand: 30 µM Zn)
67 | D135F | 0.0718 ± 0.001 | 0.138 ± 0.0065 | 1.49 ± 0.28
68 | D135G | 0.0531 | 0.0764 ± 0.0023 | 0.802 ± 0.074
69 | D135H | 0.0665 ± 0.0018 | 0.107 ± 0.0042 | 2.14 ± 0.068
70 | D135I | 0.0614 ± 0.0018 | 0.0927 ± 0.0031 | 1.72 ± 0.18
71 | D135K | 0.0618 ± 0.0018 | 0.085 ± 0.0015 | 0.962 ± 0.052
72 | D135L | 0.059 | 0.0898 ± 0.0026 | 1.55 ± 0.24
73 | D135M | 0.0636 ± 0.0018 | 0.09639 ± 0.00052 | 2.2 ± 0.33
74 | D135N | 0.0588 ± 0.0034 | 0.0847 ± 0.0078 | 1.18 ± 0.32
75 | D135P | 0.0557 ± 0.0036 | 0.0826 ± 0.0049 | 0.672 ± 0.09
76 | D135Q | 0.0574 ± 0.0023 | 0.0826 ± 0.0023 | 1.28 ± 0.13
77 | D135R | 0.06267 ± 0.00052 | 0.098 ± 0.0086 | 0.909 ± 0.043
78 | D135S | 0.06011 ± 0.00052 | 0.08723 ± 0.00052 | 0.988 ± 0.095
79 | D135T | 0.0608 | 0.088 ± 0.001 | 1.13 ± 0.12
80 | D135V | 0.059 ± 0.001 | 0.081 ± 0.0015 | 1.06 ± 0.13
81 | D135W | 0.0737 ± 0.0036 | 0.146 ± 0.012 | 1.83 ± 0.17
82 | D135Y | 0.0676 ± 0.0039 | 0.116 ± 0.0073 | 1.46 ± 0.17
83 | T136A | 0.0601 ± 0.001 | 0.0696 ± 0.0031 | 0.668 ± 0.013
84 | R137A | 0.0579 ± 0.0021 | 0.06524 ± 0.00052 | 0.454 ± 0.062
85 | G138A | 0.0597 ± 0.001 | 0.0724 ± 0.0018 | 0.697 ± 0.17
86 | T139A | 0.0616 ± 0.0015 | 0.0737 ± 0.0036 | 0.7601 ± 0.0031
87 | T140A | 0.0614 ± 0.0013 | 0.0726 ± 0.0015 | 0.5 ± 0.039
88 | H142A | 0.0614 ± 0.0034 | 0.0718 ± 0.001 | 0.728 ± 0.32
